The results in this text go back to article PMC4795164.

Substrate in the data set: N[C@@H](CSSC[C@H](N)C(=O)O)C(=O)O
Put plainly: purified protein. The class given is biochemical, Homo sapiens. The note with it: 100 µM AdoMet, 50 µM PLP, 100 mM HEPES pH 7.4, 37 °C.

B1: human CBS (cystathionine beta-synthase) (Homo sapiens) (protein)
chain: MPSETPQAEVGPTGCPHRSGPHSAKGSLEKGSPEDKEAKEPLWIRPDAPSRCTWQLGRPASESPHHHTAPAKSPKILPDILKKIGDTPMVRINKIGKKFGLKCELLAKCEFFNAGGSVKDRISLRMIEDAERDGTLKPGDTIIEPTSGNTGIGLALAAAVRGYRCIIVMPEKMSSEKVDVLRALGAEIVRTPTNARFDSPESHVGVAWRLKNEIPNSHILDQYRNASNPLAHYDTTADEILQQCDGKLDMLVASVGTGGTITGIARKLKEKCPGCRIIGVDPEGSILAEPEELNQTEQTTYEVEGIGYDFIPTVLDRTVVDKWFKSNDEEAFTFARMLIAQEGLLCGGSAGSTVAVAVKAAQELQEGQRCVVILPDSVRNYMTKFLSDRWMLQKGFLKEEDLTEKKPWWWHLRVQELGLSAPLTVLPTITCGHTIEILREKGFDQAPVVDEAGVILGMVTLGNMLSSLLAGKVQPSDQVGKVIYKQFKQIRLTDTLGRLSHILEMDHFALVVHEQIQYHSTGKSSQRQMVFGVVTAIDLLNFVAAQERDQK
For B1, the Km (as a rule, the concentration of substrate that gives half-maximal velocity) stood at 1300 ± 100 µM; the Vmax (in general, the rate approached at saturating substrate) came out at 0.102 µmol/min/mg; the kcat (usually the number of substrate molecules converted per active site and unit of time at saturation) was found to be 0.11 s⁻¹; the kcat/Km (as a rule, the second-order rate constant that governs catalysis at low substrate concentration) came out at 85 M⁻¹ s⁻¹.
